Results from article PMC10784468 (Nature Communications, 2024).
Positions of bridges follow the written chain, without caps; N, C: chain ends. Residues, ends and D or L forms follow the SMILES beside them. *: point of attachment. X1 = O=C(O)c1ccc(-c2c3nc(c(-c4ccc(C(=O)O)cc4)c4ccc([nH]4)c(-c4ccc(C(=O)*)cc4)c4nc(c(-c5ccc(C(=O)O)cc5)c5ccc2[nH]5)C=C4)C=C3)cc1; X2 = O=C(O)C/C(=C/C(=O)*)C(=O)O

Experiments:
ζ-potential in PBS = type: physicochemical; details: for Zeta potential (mV): mean
Procedure: Supplementary Fig. 12. ζ-potential change of Gi-F-CAA (40 μM) in PBS (0.01 M, pH 7.4 or 6.5) (n=3
experimental repeats). Experiment was independently repeated three times with similar results. Values are
(1 picture or pasted object on this page, not shown here)
Supplementary Fig. 13. ζ-potential of NGi-F-CAA, Gi-F and Gi-F-SA (pH 7.4) (40 μM) in PBS (n=3

EJ xenograft tumor = experiment: Penetration assay in tumor frozen sections (Cy labeled); details: EJ xenograft mice, Cy-labeled, 8 mg/kg i.v.
Procedure: Firstly, EJ xenograft mice were administrated with Cy labeled Gi-F (8 mg/kg in 100 μL PBS) and Cy labeled Gi-F-CAA (8 mg/kg in 100 μL PBS) by intravenous injection. Afterward, EJ tumor tissues were entirely resected and protected from light. Subsequently, the tumor tissues were fixed with optimum cutting temperature (OCT) compound for 12 h at −20 °C avoiding light. Finally, the fixed tumor tissues were cut into sections and immediately observed with UltraVIEW VoX.

EJ cells = experiment: Cytotoxicity assay (CCK-8) on EJ cells; details: EJ cells, pH 6.5, 48 h, Fer-1; Supplementary Fig. 26
Procedure: Initially, EJ cells were seeded into 96 well plates at a density of 5 × 10^3 per well and incubated in a CO2 incubator overnight at 37 °C. Subsequently, Gi-F (pH = 7.4), Gi-F-SA (pH = 7.4), NGi-F-CAA (pH = 7.4), NGi-F-CAA (pH = 6.5), Gi-F-CAA (pH = 7.4) and Gi-F-CAA (pH = 6.5) at different concentrations (1, 2, 4, 8, 16, 32, 64, 128 and 256 μM) was added to the cells and further incubated for 48 h. Finally, the cell viability rate was calculated by (Sample wells-Blank wells)/(Control wells-Blank wells) × 100%.

EJ xenograft tumors = experiment: In vivo antitumor evaluation in EJ xenograft model (tumor volume, tumor weight, body weight); details: 8 mg/kg i.v.; for Tumor weight: six injections, 18 days
Procedure: Female BALB/c nude mice (~8 weeks, 18 g) were subcutaneously inoculated with 5 × 10^6 EJ cells resuspended in Matrigel. When the tumor size reached about 100 mm^3, EJ tumor-bearing mice were randomly divided into four groups and administrated with PBS, Gi-F (8 mg/kg in 100 μL PBS), Gi-F-SA (8 mg/kg in 100 μL PBS) and Gi-F-CAA (8 mg/kg in 100 μL PBS) by intravenous injection at 2-days intervals for six times. Individual tumor volume and bodyweight of mouse after different treatment was collected at 2-days intervals for analysis. Mice were killed at 18 days post treatment unless endpoints were exceeded. Moreover, tumors from all groups were harvested under euthanasia and weighed for analysis at the end of treatment.

EJ tumor tissues [1] = experiment: Tumor GSH content detection; type: in vivo, BALB/c nude mice; details: for Relative content of GSH: tumor
Procedure: (§1) EJ tumor tissues were collected under euthanasia at the end of treatment and washed with PBS for 3 times. Afterwards, the tumor lysates were collected by centrifugation at 8000 rpm for 10 min at 4 °C after lysed with Frozen Type Tissuelyser. Finally, the GSH contents were measured with a GSH Assay Kit based on the manufacturer’s instructions.

EJ tumor tissues [2] = experiment: Tumor MDA content detection; type: in vivo, BALB/c nude mice; details: for Relative content of MDA: tumor
Procedure: as §1, with “8000 g” for “8000 rpm”, “the MDA” for “the GSH”, “measured by thiobarbituric acid (TBA) reaction” for “measured”, “a Malondialdehyde (MDA)” for “a GSH”, “Kit (Solarbio Science & Technology Co., Ltd., China, BC0025)” for “Kit”

GPX4 [3] = biological target: T1, GPX4 (Homo sapiens, UniProt P36969); experiment: Intracellular GPX4 activity detection; type: cell-based; design: endogenous in cells; host or cells: EJ bladder cancer cells
T1 sequence (P36969 1-197): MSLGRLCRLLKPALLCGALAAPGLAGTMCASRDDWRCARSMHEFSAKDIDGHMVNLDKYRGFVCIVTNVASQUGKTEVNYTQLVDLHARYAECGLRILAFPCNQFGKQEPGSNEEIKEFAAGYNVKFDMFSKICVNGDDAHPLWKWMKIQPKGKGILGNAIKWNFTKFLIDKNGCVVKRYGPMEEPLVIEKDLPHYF
Procedure: Initially, EJ cells (5 × 10^5) were cultured in 6-well plate with a CO2 incubator overnight at 37 °C. […] Next, EJ cells were collected and washed with PBS for 3 times. Afterwards, the cell lysates were collected by centrifugation at 5000 rpm for 10 min at 4 °C after ultrasonic lysis in an ice bath. Finally, the GPX4 activity were measured with a GPX Assay Kit based on the manufacturer’s instructions.

GPX4 [4] = biological target: T1, GPX4; experiment: Tumor GPX4 activity detection; type: in vivo, BALB/c nude mice; design: from tissue; host or cells: EJ xenograft tumour tissue from BALB/c nude mice
Procedure: as §1, with “5000” for “8000”, “by freeze-thaw treatment.” for “with Frozen Type Tissuelyser.”, “GPX4 activity” for “GSH contents”, “GPX” for “GSH”

[5] = EJ tumor tissues, 8 mg/kg i.v., versus PBS, Gi-F and Gi-F-SA

## CC(C)C[C@H](NC(=O)c1ccc(-c2c3nc(c(-c4ccc(C(=O)O)cc4)c4ccc([nH]4)c(-c4ccc(C(=O)O)cc4)c4nc(c(-c5ccc(C(=O)O)cc5)c5ccc2[nH]5)C=C4)C=C3)cc1)C(=O)N[C@@H](CCCCNC(=O)/C=C(/CC(=O)O)C(=O)O)C(=O)N[C@@H](CC(C)C)C(=O)N[C@@H](CCCCN)C(=O)N[C@@H](CC(C)C)C(=O)N[C@@H](CCCCNC(=O)/C=C(/CC(=O)O)C(=O)O)C(=O)NCC(=O)N[C@@H](C)C(=O)N[C@H]1CSSC[C@@H](C(=O)N2CCC[C@H]2C(=O)N[C@H](C(=O)O)C(C)C)NC(=O)[C@@H]2CCCN2C(=O)[C@H](Cc2ccc(O)cc2)NC(=O)[C@H](CC(C)C)NC(=O)[C@@H]2CCCN2C(=O)[C@H](CC(C)C)NC(=O)[C@H](Cc2c[nH]c3ccccc23)NC(=O)[C@H](CC(N)=O)NC1=O [Gi-F-CAA] (X1-LK(X2)LKLK(X2)GACNWLPLYPCPV-OH; disulfide 9-17; C-terminus assumed)
ζ-potential in PBS; 40 μM in PBS 0.01 M, pH 6.5
  ζ-potential change after incubation at pH 6.5: increased considerably
ζ-potential in PBS; pH 6.5, 0 min
  Zeta potential (mV): -25.5 mV
ζ-potential in PBS; pH 6.5, 10 min
  Zeta potential (mV): -19.8 mV
ζ-potential in PBS; pH 6.5, 30 min
  Zeta potential (mV): -12.4 mV
ζ-potential in PBS; pH 6.5, 60 min
  Zeta potential (mV): -7.6 mV
ζ-potential in PBS; pH 6.5, 90 min
  Zeta potential (mV): -6.4 mV
ζ-potential in PBS; pH 6.5, 120 min
  Zeta potential (mV): -5.5 mV
ζ-potential in PBS; pH 7.4, 0 min
  Zeta potential (mV): -27.3 mV
ζ-potential in PBS; pH 7.4, 10 min
  Zeta potential (mV): -25.6 mV
ζ-potential in PBS; pH 7.4, 30 min
  Zeta potential (mV): -24.4 mV
ζ-potential in PBS; pH 7.4, 60 min
  Zeta potential (mV): -23.4 mV
ζ-potential in PBS; pH 7.4, 90 min
  Zeta potential (mV): -22.6 mV
ζ-potential in PBS; pH 7.4, 120 min
  Zeta potential (mV): -22.5 mV
EJ xenograft tumor
  tumor penetration, fluorescence distribution in tumor sections: distributed all over the tumor tissues
EJ cells
  cytotoxicity with ferroptosis inhibitor Fer-1: successfully rescued by Fer-1
EJ xenograft tumors; six injections at 2-days intervals, n = 6
  mean tumor volume at 18 days post injection: 552 mm^3
EJ xenograft tumors; mice 1
  Tumor weight: 0.398 g
EJ xenograft tumors; mice 2
  Tumor weight: 0.419 g
EJ xenograft tumors; mice 3
  Tumor weight: 0.47 g
EJ xenograft tumors; mice 4
  Tumor weight: 0.318 g
EJ xenograft tumors; mice 5
  Tumor weight: 0.548 g
EJ xenograft tumors; mice 6
  Tumor weight: 0.402 g
EJ tumor tissues [1]; [5]
  GSH levels of tumor tissues: substantial reduction of GSH levels
EJ tumor tissues [1]; mice 1
  Relative content of GSH: 0.248
EJ tumor tissues [1]; mice 2
  Relative content of GSH: 0.322
EJ tumor tissues [1]; mice 3
  Relative content of GSH: 0.359
EJ tumor tissues [1]; mice 4
  Relative content of GSH: 0.285
EJ tumor tissues [1]; mice 5
  Relative content of GSH: 0.331
EJ tumor tissues [1]; mice 6
  Relative content of GSH: 0.276
EJ tumor tissues [2]; [5]
  LPO levels of tumor tissues: elevation
EJ tumor tissues [2]; mice 1
  Relative content of MDA: 4.75
EJ tumor tissues [2]; mice 2
  Relative content of MDA: 4.25
EJ tumor tissues [2]; mice 3
  Relative content of MDA: 4.65
EJ tumor tissues [2]; mice 4
  Relative content of MDA: 5.15
EJ tumor tissues [2]; mice 5
  Relative content of MDA: 4.25
EJ tumor tissues [2]; mice 6
  Relative content of MDA: 4.75
GPX4 [3]; EJ cells, 8 h, pH 6.5, 40 μM, PBS group normalized as 1, #1
  Relative activity of GPX4: 0.12
GPX4 [3]; EJ cells, 8 h, pH 6.5, 40 μM, PBS group normalized as 1, #2
  Relative activity of GPX4: 0.09
GPX4 [3]; EJ cells, 8 h, pH 6.5, 40 μM, PBS group normalized as 1, #3
  Relative activity of GPX4: 0.17
GPX4 [3]; EJ cells, 8 h, pH 7.4, PBS group normalized as 1, #1
  Relative activity of GPX4: 0.62
GPX4 [3]; EJ cells, 8 h, pH 7.4, PBS group normalized as 1, #2
  Relative activity of GPX4: 0.73
GPX4 [3]; EJ cells, 8 h, pH 7.4, PBS group normalized as 1, #3
  Relative activity of GPX4: 0.69
GPX4 [3]; pH=6.5, replicate #1
  Relative activity of GPX4: 0.21
GPX4 [3]; pH=6.5, replicate #2
  Relative activity of GPX4: 0.24
GPX4 [3]; pH=6.5, replicate #3
  Relative activity of GPX4: 0.19
GPX4 [3]; pH=7.4, replicate #1
  Relative activity of GPX4: 0.76
GPX4 [3]; pH=7.4, replicate #2
  Relative activity of GPX4: 0.63
GPX4 [3]; pH=7.4, replicate #3
  Relative activity of GPX4: 0.6
GPX4 [4]; mice 1
  Relative activity of GPX4: 0.21
GPX4 [4]; mice 2
  Relative activity of GPX4: 0.22
GPX4 [4]; mice 3
  Relative activity of GPX4: 0.2
GPX4 [4]; mice 4
  Relative activity of GPX4: 0.21
GPX4 [4]; mice 5
  Relative activity of GPX4: 0.22
GPX4 [4]; mice 6
  Relative activity of GPX4: 0.2
